Results on 1 molecule are retold here after patent US20130052198A1, “ANTI-INFLAMMATORY FACTORS” (THE GENERAL HOSPITAL CORPORATION, priority 2010, published 2013).

One test has as its system leukocytes. The experiment in a line: IFN-γ production by LPS-stimulated leukocytes, ELISA. The test is classed as cell-based, human. As for the experimental part: (§1) Leukocytes were prepared from fresh whole human blood, collected and spun in the presence of Ficoll for 30 minutes at 1500×g. The mononuclear cell layer was transferred to a new tube where it was washed once with RPMI 1640. The mononuclear cells were plated at a density of 1×10^5 per well of a 96-well plate in 50 μL of RPMI 1640 per well. MSC-CM was then immediately added to each well and allowed to incubate in the presence of the mononuclear cells for 16 hours. After incubation, 50 μL of RPMI 1640 containing 10 μg/mL of LPS was added to each well and allowed to incubate for an additional 5 hours. The resultant supernatants were collected and analyzed via ELISA for human interleukin-10 (IL-10). This procedure of incubating leukocytes with MSC-CM to determine IL-10 stimulating activity will be henceforth referred to as the “IL-10 assay”.
(§2) Preparations and use of MSC-CM, Fb-CM, LPS-stimulated MSC-CM, leukocytes were as described in Examples 1-3 and the Figures. These conditioned media preparations were added to leukocyte cultures for 16 hours, after which the culture was stimulated with LPS at 10 μg/ml. The medium from this culture was collected 24 hours after LPS stimulation of leukocytes and analyzed using an IFN-γ ELISA.

For test [1], the system named is human leukocytes in culture. The experiment in a line: Cytokine production (IL-10 or IFN-γ) in human leukocytes in culture. The test is classed as cell-based. The settings on record: concentrations within five orders of magnitude of 10 μg/mL. As to the method:
as §1, §2

B1: HAPLN1: Hyaluronan and proteoglycan link protein 1; purified, recombinant form (protein, UniProt P10915 16-354, looked up)
Hyaluronan and proteoglycan …: DHLSDNYTLDHDRAIHIQAENGPHLLVEAEQAKVFSHRGGNVTLPCKFYRDPTAFGSGIHKIRIKWTKLTSDYLKEVDVFVSMGYHKKTYGGYQGRVFLKGGSDSDASLVITDLTLEDYGRYKCEVIEGLEDDTVVVALDLQGVVFPYFPRLGRYNLNFHEAQQACLDQDAVIASFDQLYDAWRGGLDWCNAGWLSDGSVQYPITKPREPCGGQNTVPGVRNYGFWDKDKSRYDVFCFTSNFNGRFYYLIHPTKLTYDEAVQACLNDGAQIAKVGQIFAAWKILGYDRCDAGWLADGSVRYPISRPRRRCSPTEAAVRFVGFPDKKHKLYGVYCFRAYN
As for B1, in the test with leukocytes (16 h incubation, LPS 10 μg/ml, medium collected 24 h after LPS), the “IFN-γ production of leukocytes stimulated with LPS” value is reported as “independently reduce IFN-γ production”. In addition, the “dose-dependency of IFN-γ production” value with leukocytes (HAPLN1 diluted in RPMI 1640) was “dose-dependency of IFN-γ production over several orders of magnitude”. Further, the “promote IL-10 production or suppress IFN-γ production” value in test [1] is recorded as “either promote IL-10 production or suppress IFN-γ production”.
